Like-named read-outs stand apart in the source and are kept apart here.
Experiments:
Test in all cases: SPR
[1] = biological target: T1, Recombinant truncated human his-tag ROR1 extracellular domain protein (UniProt Q01973 30-403)
[2] = biological target: T1, Recombinant truncated human his-tag …; remark: listed apart in the source
[3] = biological target: T1, Recombinant truncated human his-tag …; remark: listed apart in the source

T1 sequence (Q01973 other isoform, or with tags, fused parts or gaps): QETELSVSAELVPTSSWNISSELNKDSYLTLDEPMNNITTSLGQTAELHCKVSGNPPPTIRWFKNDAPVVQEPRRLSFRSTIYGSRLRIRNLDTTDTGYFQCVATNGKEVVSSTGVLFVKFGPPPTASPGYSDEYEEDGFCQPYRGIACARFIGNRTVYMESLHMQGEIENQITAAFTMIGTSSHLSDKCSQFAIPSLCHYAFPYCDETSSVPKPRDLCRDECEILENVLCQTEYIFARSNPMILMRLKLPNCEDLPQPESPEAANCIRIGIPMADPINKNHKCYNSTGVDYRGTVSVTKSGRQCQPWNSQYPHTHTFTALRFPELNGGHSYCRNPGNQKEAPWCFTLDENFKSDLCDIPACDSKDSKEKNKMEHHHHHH

Binder | Kd [1] [nM] | Kd [2] [nM] | Kd [3] [nM]
RO6D8-jlv1011 (antibody, V domains shown) VH: QVQLVQSGAEVKKPGASVKVSCKASGYTFTSKYYHWVRQAPGQGLEWMGIINPTSGSTSYAQKFQGRVTMTRDTSTSTVYMELSSLRSEDTAVYYCARDSSRYSGWYFDLWGQGTTVTVSS VL: AIQLTQSPSSLSASVGDRVTITCRASQGVSTEIAWYQQKPGKAPKLLIYAASSLQSGVPSRFSGSGSGTDFTLTISSLQPEDFATYYCQQYYGYPIAFGQGTRLEIK | 0.796 | 0.796 | –
RO6D8-011 (antibody, V domains shown) VH: QVQLVQSGAEVKKPGASVKVSCKASGYTFTNYYMHWVRQAPGQGLEWMGIINPTSGRTSYAQKFQGRVTMTRDTSTSTVYMELSSLRSEDTAVYYCARDSSSWYSGWYFDLWGQGTTVTVSS VL: AIQMTQSPSSLSASVGDRVTITCRASQGIRTDLAWYQQKPGKAPKLLIYAASSLQSGVPSRFSGSGSGTDFTLTISSLQPEDFATYYCQQYYGYPIAFGQGTRLEIK | 2.48 | 2.48 | –
RO6D8-s10 (antibody, V domains shown) VH: QVQLVQSGAEVKKPGASVKVSCKASGYTFTNYYMHWVRQAPGQGLEWMGIINPSGGSTSYAQKFQGRVTMTRDTSTSTVYMELSSLRSEDTAVYYCARSSRSSYYLWVLDLWGQGTTVTVSS VL: AIQMTQSPSSLSASVGDRVTITCRASQGVSTEIAWYQQKPGKAPKLLIYAASSLQSGVPSRFSGSGSGTDFTLTISSLQPEDFATYYCQQFNSYPITFGQGTRLEIK | – | 2.46 | 2.46
RO6D8wt (antibody, V domains shown) VH: QVQLVQSGAEVKKPGASVKVSCKASGYTFTNYYMHWVRQAPGQGLEWMGIINPSGGSTSYAQKFQGRVTMTRDTSTSTVYMELSSLRSEDTAVYYCARDSSSWYSGWYFDLWGQGTTVTVSS VL: AIQMTQSPSSLSASVGDRVTITCRASQDVRAHLAWYQQKPGKAPKLLIYAASSLQSGVPSRFSGSGSGTDFTLTISSLQPEDFATYYCQQFNSYPITFGQGTRLEIK | – | 118 | 118
